Consider 3 molecules from patent US20190040127A1 (University of California, published 2019).

Numbering of substitutions follows the chain as printed.

Assay [1] addresses T1, Epithelial Membrane Protein 2 (EMP2) (human, UniProt P54851 1-167).
T1 construct: Endogenous EMP2 on SUM149 or MDA-MB-468 breast cancer cells
T1 sequence: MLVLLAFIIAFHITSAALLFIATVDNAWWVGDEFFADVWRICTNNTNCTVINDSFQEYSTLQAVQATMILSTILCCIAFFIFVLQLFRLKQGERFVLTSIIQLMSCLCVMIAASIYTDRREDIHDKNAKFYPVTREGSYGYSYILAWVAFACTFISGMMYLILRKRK
The assay is described as follows: flow cytometry on SUM149 cells, nonlinear regression (FIG. 4). The protocol:
(§1) A comparison of anti-EMP2 Variant 1 and PG-101 binding affinity for EMP2 was carried out. […] PG-101 and Variant 1 binding to EMP2 was determined using SUM149 and flow cytometry. Variant 1 retains binding to EMP2 with improved affinity. Flow cytometry was used to determine the ability of both antibodies to bind to EMP2 on SUM149 cells.

For assay [2], the target named is T1, Epithelial Membrane Protein 2 (EMP2). The assay is described as follows: flow cytometry on SUM149 cells (FIG. 4). The method, then: as §1
On the technique in general: A flow cytometer gives signals particle by particle.

The target is the same in assay [3]. The assay is described as follows: flow cytometry on MDA-MB-468 cells (FIG. 2).

B1: PG-101 Parental (antibody, human IgG1, kappa, V domains shown)
VH: QVQLVQSGGGVVQPGRSLRLSCAASGFTFSSYAMHWVRQAPGKGLEWVAVISYDGSNKYYADSVKGRFTISRDNSKNTLYLQMNSLRAEDTAVYYCARDRRGRKSAGIDYWGQGTLVTVSS
VL: DIQMTQSPSSLSASVGDRVTITCQASQDISNYLNWYQQKPGKAPKLLIYAASSLQSGVPSRFSGSGSGTDFTLTISSLQPEDFATYYCLQDYNGWTFGQGTKVDIKR
notes: Full IgG1/kappa made in HEK293 cells; also called parental antibody
B1: the Kd – broadly, the free concentration of one partner at which half of the binding sites on the other are occupied at equilibrium, for simple one-to-one binding – in assay [1] came out at 2.6 µg/mL.

B2: PG-101 Variant 1 (antibody, human IgG1, kappa, V domains shown)
VH: B1 VH
VL: B1 VL with N93S
notes: Full IgG1/kappa made in HEK293 cells; also called anti-EMP2 Variant 1; PG-201
For the molecule B2, the “fold increase in binding against the parental antibody PG-101” value in assay [2] was greater than 2 fold.

B3: PG-101 Variant 2 (antibody, human IgG1, kappa, V domains shown)
VH: B1 VH
VL: B1 VL with G94L
notes: Full IgG1/kappa made in HEK293 cells
Consider B3, for which the binding result in assay [3] is listed as “binds”.
